In patent publication US20240401101A1, “A LIVE CELL ASSAY TO DETERMINE PERMEABILITY OF TEST MOLECULES TO AND/OR WITHIN THE PEPTIDOGLYCAN SCAFFOLD OF BACTERIA CELLS” (priority 2021, published 2024):

Test system: S. aureus (ATCC 25923)
Assay: Enzymatic degradation of fluorescently labeled whole cells (mutanolysin / proteinase K), incl. BONCAT control
Assay type: cell-based, Staphylococcus aureus

B1: proteinase K: promiscuous protease (protein, UniProt P06873 106-384, looked up)
Proteinase K: AAQTNAPWGLARISSTSPGTSTYYYDESAGQGSCVYVIDTGIEASHPEFEGRAQMVKTYYYSSRDGNGHGTHCAGTVGSRTYGVAKKTQLFGVKVLDDNGSGQYSTIIAGMDFVASDKNNRNCPKGVVASLSLGGGYSSSVNSAAARLQSSGVMVAVAAGNNNADARNYSPASEPSVCTVGASDRYDRRSSFSNYGSVLDIFGPGTSILSTWIGGSTRSISGTSMATPHVAGLAAYLMTLGKTTAASACRYIADTANKGDLSNIPFGTVNLLAYNNYQA
With B1 the “cellular fluorescence of D-cystine/Mal-Fl labeled cells during enzyme treatment” value (50 μg/mL mutanolysin or 500 μg/mL proteinase K, mutanolysin read at 120 minutes) was “remained mostly unchanged” and the “cellular fluorescence of L-azidohomoalanine/DBCO-Fl labeled cells after enzyme treatment” value (BONCAT, 1 mM AHA, 25 μM DBCO-Fl) was “significant decrease”.
